The target of data set [1] is StGyrA-CTD R667A R667A (Salmonella enterica serovar Typhi CT18) (UniProt A0A1U7FVV6). In words: fluorescence binding.
The target of data set [2] is StGyrA-CTD R712A R712A (Salmonella enterica serovar Typhi CT18) (UniProt A0A1U7FVV6). In words: fluorescence binding.
Data set [3] has as its target StGyrA-CTD R716A R716A (Salmonella enterica serovar Typhi CT18) (UniProt A0A1U7FVV6). Put plainly: fluorescence binding.
The target in data set [4] is StGyrA-CTD R766A R766A (Salmonella enterica serovar Typhi CT18) (UniProt A0A1U7FVV6). In words: fluorescence binding.
Data set [5] concerns the target StGyrA-CTD R817A R817A (Salmonella enterica serovar Typhi CT18) (UniProt A0A1U7FVV6). In words: fluorescence binding.
For data set [6], the target named is Salmonella enterica serovar Typhi DNA Gyrase A C-terminal domain (StGyrA-CTD) (Salmonella enterica serovar Typhi (CT18 strain)). Put plainly: SEC.
A further data set deals with StGyrA-CTD D692A (Salmonella enterica serovar Typhi CT18, UniProt A0A1U7FVV6 530-840, D692A). In words: fluorescence binding; 1 mM Mg2+. The following applies: protein: recombinant; tags: C-terminal 6xHis; blunt.
A further data set deals with StGyrA-CTD wild type (Salmonella enterica serovar Typhi CT18, UniProt A0A1U7FVV6 530-840). In words: fluorescence binding; 1 mM Mg2+. The following applies: protein: recombinant; tags: C-terminal 6xHis (pET-28a); chain copies: 2; blunt.
Another data set addresses StGyrA-CTD R612A (Salmonella enterica serovar Typhi CT18, UniProt A0A1U7FVV6 530-840, R612A). In words: fluorescence binding; 1 mM Mg2+; text gives 220-250 nM for other mutants. Conditions: protein: recombinant; tags: C-terminal 6xHis; blunt.

In general, Kd refers to a measure of binding affinity in units of concentration. For the molecule “TAAAGTCTAGAGACACGCATAGTCAATGACGGAGTTA (double strand) [FAM-37 bp DNA]”, the Kd in [1] stood at 263 nM; in [2], 231 nM; in data set [3], 277 nM; in data set [4] it was 221 nM; in data set [5] it was 204 nM.

The stoichiometry N is the number of molecules, sites or subunits per partner or assembly. Regarding “Salmonella enterica serovar Typhi DNA Gyrase A C-terminal domain (StGyrA-CTD) (domain or fragment)”, the stoichiometry N in data set [6] came out at 2.

B1: FAM-37 bp DNA (dsDNA)
DNA 1: TAAAGTCTAGAGACACGCATAGTCAATGACGGAGTTA
DNA 2: TAACTCCGTCATTGACTATGCGTGTCTCTAGACTTTA
With B1, the results for the Kd in the data set with StGyrA-CTD D692A, with StGyrA-CTD wild type and with StGyrA-CTD R612A were 129 nM, 122 nM and 135 nM, respectively.

The record behind these values is publication PMC7210945, “The pivot point arginines identified in the β-pinwheel structure of C-terminal domain from Salmonella Typhi DNA Gyrase A subunit”.
